Experimental data taken from patent US20240166738A1 (Alector, published 2024).
Where a chain is given by its changes, count along the chain named.

B1: TM-1 (antibody, V domains shown)
VH: QVQLQQSGAELVRPGTSVKVSCKASGYAFTNYLIEWVKQRPGQGLEWIGVINPGSGGTKYNEKLKGKATLTADKSSSTAYMQLSSLTSVDSAVYFCARRGYTIYDFYAMDYWGQGTSVTVSS
VL: DVLMTQTPLSLPVSLGDHASISCRSSQSIVYNNGNTYLEWYLQKPGQSPKLLIYKVSNRFSGVPDRFSGSGSGTDFTLKISRVEAEDLGVYYCFQVSHVPFTFGSGTKLEIK
B2: TM-22 (antibody, V domains shown)
VH: QVQLQQSGPELVKPGASVKISCKASGYRFTSYYIHWVKQRPGQGLEWIGWIYPGNGITNYNEKFKGKATLTADTSSSTAYMQLSSLTSEDSAVYYCASPYYGIRNCYFDVWGTGTTVTVSS
VL: B1 VL with S26G, Y31H, N32S, V90I, V96G, F101W, S105G
B3: TM-19 (antibody, V domains shown)
VH: DVQLQQSGAELVRPGASVKLSCTASGFNIKDYYMYWVKQRPEQGLEWIGRIDPEDGDTENAPKFRGMATMTADTSSNTAYLQLNSLTSEDTAVYYCTTRIGNLYHVMDYWGHGTSVTVSS
VL: B1 VL with H18Q, Y31H, N32S, S48A, Y54D, S57F, V96G
B4: TM-17 (antibody, V domains shown)
VH: QVQLQQSGAELIRPGTSVKVSCKASGYAFTDYLIEWVKQRPGQGLEWIGVINPGSGGTNYNEKFKGKAKLTADKSSSTAYMQLSSLTSEDSAVYFCVRSSYGVYVAYPMDYWGQGTSVTVSS
VL: DIQMTQSPSSLSASLGERVSLTCRASQDIGSNLNWLQQEPDGTIKRLIYATSSLDSGVPKRFSGSRSGSDYSLTISSLESEDFVDYYCLQYASSPRTFGGGTKLEIK
B5: TM-46 (antibody, V domains shown)
VH: QVQLQQSGADLVKPGASVKISCKASGYAFSSFWMNWVKLRPGKGLEWIGQIYPGDGDTDYNGKFKDKATLTADTSSNTAYMQLSRLTSEDSAVYFCARGDGFSYFDYWGQGTILTVSS
VL: QIVLTQSPVIMSASPGERVTMTCCASSRVNYMHWYQQKSGSYPKRWIYDTSKLASGVPGRFSGSGSGTSYSLTISSMEAEDAATYYCQQWSSNPPTFGGGTKLEIK
B6: TM-51 (antibody, V domains shown)
VH: QVQLQQPGAELVKPGASVKLSCKASGYTFTTYWIDWVKQRPGQGLEWIGNMFPGSSRTNYNEKFKSRATLTVDTSSSTAYMQLSSLTSDDSAVYYCARKEGLWTYGYDGGAWFAYWGQGTLVTVSA
VL: DIVMSQSPSSLAVSVGEKVTMSCKSSQSLRNSRTRKNYLAWYQQKPGQSPKLLIYWASTRESGVPDRFTGSGSGTDFTLTISSVQAEDLAIYYCKQSYNLLTFGAGTKLELK
B7: TM-77 (antibody, V domains shown)
VH: QIQLQQSGAELVRPGASVKLSCKASGYTFTDYEMHWVKQTPVHGLEWIGVIDPETGGTAYNQMFKGKATLTADKSSSTAYMDLRSLTSEDSAVYYCVKYGIEGYWGQGTTLTVSS
VL: DVVMTQIPLTLSVTLGQPASISCKSSQSLFHSNGKTYLNWLLQRPGQSPKLLIYMVSKLESGVPDRFSGSGSGTDFTLKISRVEAEDLGVYYCLQVTHFPLTFGAGTKLELK
B8: TM-83 (antibody, V domains shown)
VH: QVQLQQPGTELVKPGALVKLSCKASGYTFTTYWIHWVKQRPGQGLEWIGNINPSNGNTKNNERFKTKATLTVDKSSSTAYMQLSSLTSEDSAVYYCVRGDYYGTSYPFWGQGTLVTVSS
VL: DVVMTQTPLSLPVSLGDQASISCRSSQSLVHSNGITYLHWYLQKPGQSPKLLIYKVSNRFSGVPDRFSGSGSGTDFTLKISRVEAEDLGVYFCSQSTHVPYTFGGGTKLEIK
B9: TM-7 (antibody, V domains shown)
VH: EVQLQQSGPVLVKPGPPVKISCKASGFTFTDYYIHWVKLSHGKSLEWIGLVYPYNGDTDYNQKFKGKATLTVDTSSSTAYMELNSLTSEDSAVYYCARTYYANSPDYWGQGTTVTVSS
VL: DIVMTQSPSSLSVSAGEKVTMSCKSSQSLLNSGNQRNYLAWYQQKPGQPPKLLIYGASTRESGVPDRFTGSGSGTDFTLTISNVQAEDLAVYYCQNDHSYPLTFGAGTKLELK
B10: TM-47 (antibody, V domains shown)
VH: QVQLKESGPVLVAPSQSLSITCTVSGFSLTNYGVHWVRQPPGKGLEWLGVIWAGGNTNYNSALMSRLSISKDNSKSQVFLKMNSLQTDDTAMYYCAKEAKLLRSYAMDYWGQGTSVTVSS
VL: B9 VL with S12T, S14T, R36K, A40T, G56W, N83S, H98Y, L112I
B11: TM-18 (antibody, V domains shown)
VH: EVRLQQSGPELVKPGASVKISCKTSGYTFTDYYMNWVKQSHGKSLEWIVNINPNNGDAFYNQKFKGKATLTVDKSSNTAYLDLRSLTSEDSAVYYCAREGQLRLRRVYAMDYWGQGTSVTVSS
VL: DIVLAQSPASLAVSLGQRATISCRASKSVSISVYTYVHWYQQKPGQPPKLLIYLASNLESGVPARFSGSGSGTDFTLNIHPVEEEDAATYYCQHSRELPYTFGGGTKLEIK
B12: TM-34 (antibody, V domains shown)
VH: EVQLVESGGGLVKPGGSLKLSCAASGFSFSDSGMDWVRQAPEKGLEWFAYISSGSSTTHYADTVKGRFIISRDNAKNTLFLQMTSLRSEDTAMYYCVRRDGNYWYFDVWGTGTTVTVSS
VL: QIVLSQSPVILSASPGEKVTMTCRATSSVTYMHWYQLKPGSSPKPWIYATSNLASGVPARFSGSGSGTSYSLTISRVEAEDAATYYCQQWSSNPYTFGGGTKLEIK
B13: TM-3 (antibody, V domains shown)
VH: QVTLKESGPGIVQPSQTLSLTCSFSGFSLNTLGRGVGWIRQPSGKGLEWLAKIWWNDDKFYYPALKSRLTISKDTSKNQIFLKIANVDTADSATYYCARIAGGTGAAYWGQGTTLTVSS
VL: DIVMTQAAFSNPVTLGTSASISCRSSKSLLHSNGITYLYWYLQKPGQSPQLLISQMSSLASGVPDRFSSGGSGTDFTLRISRVEAEDVGVFYCAQNLELPWTFGGGTKLELK
B14: TM-9 (antibody, V domains shown)
VH: EVQLVESGGDLVKPGGSLKLSCVASGFTFSGYGMSWVRQTPDKRLEWVATISSGSFYIYYPDSVKGRLTVSRDNAKNTLYLQMSSLKSEDTAIYYCARQNFYYGCEDYWGQGTTLTVSS
VL: B13 VL with S54Y, S58N, D65N, G70S, F91Y, L111I
B15: TM-74 (antibody, V domains shown)
VH: EVQLQQSGPELVKPGASVKMSCKASGYTFTSYVIHWVKQKPGQGLEWIGFINPNNDGTKYNEKFRGKATLTSDKSSSTAYMELSSLTSEDSAVYYCARPYYDYEGYTMDYGGQGTSVTVSS
VL: DVVMTQSQKFMSTSVEDRVSITCKASQNVRSAVAWYQQKPGQSPKALIYLASNRHTGVPDRFAGSGSGTDFTLTISSVQSEDLADYFCLQHWKYPFTFGSGTKLEIK
B16: TM-39 (antibody, V domains shown)
VH: HVQRQQSGTELAKPGASVKLSCKTSGYTFTDYWMHWIKQRPGQGLEWIGFINPSSGYTKYNQNFKDKATLTADKSSSTAYMQLSSLTYEDSAVFYCAREAGSISDWYFDVWGTGTTVTVSS
VL: DIVMTQAAPSIPVTPGESVSISCRSSKTLLNSNGNTYLYWFLQRPGQPPQLLIYRMSNLASGVPDRFSGSGSGTAFTLRISRVEAEDVGVYYCMQHLDYPYTFGGGTQLEIK
B17: TM-26 (antibody, V domains shown)
VH: QVQLQQSGAELIRPGTSVKVSCKASGYAFTNYLIEWVKKRPGQGLEWIGVINPGSGITNYNEKFKGKATLTADKSSSTAYMQLSSLTSEDSAVYFCARSDFITTVVADYWGQGTTVTVSS
VL: DIVVTQTPLSLPVSFGDQVSISCRSSQSLTNYYGNTYLSWYLHKPGQSPQLLIYGISNRFSGVPDRFSGSGSGTDFTLKISTIKPEDLGMYYCLQGTHQPRTFGGGTKLEIK
B18: TM-23 (antibody, V domains shown)
VH: B17 VH
VL: B17 VL
B19: TM-4 (antibody, V domains shown)
VH: EVQVQQSGPVLVKPGASVKMSCKASGYTFTDYYMNWVKQSHGKNLEWIGVINPYNGGTSYHQKFKGKATLTVDKSSSTAYMELNSLTSEDSAVYYCARAATVVAGFDYWGQGTTLTVSS
VL: QAVVTQESALTTSPGETVTLTCRSSTGAVTTSNYANWVQEKPDHLFTGLIGGTNNRAPGVPARFSGSLIGDKAALTITGAQTEDEAIYFCVLWYSNHLVFGGGTKLTVL
B20: TM-41 (antibody, V domains shown)
VH: EVQLQQSGAELVKPGASIKLSCTASGFNIKDCYMHWVKQRTEQGLEWIGRIDPEDGTTNFAPKFQDRATITADTSSNTAYLQLTSLTSEDTAVYYCAREWDSGAYWGQGTLVTVSA
VL: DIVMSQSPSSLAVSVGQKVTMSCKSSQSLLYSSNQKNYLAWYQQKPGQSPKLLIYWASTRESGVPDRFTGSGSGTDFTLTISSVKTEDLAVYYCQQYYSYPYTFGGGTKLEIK
B21: TM-50 (antibody, V domains shown)
VH: B10 VH with S115L, S120A
VL: DVQMTQTTSSLSASLGDRVTISCRASQDINNYLYWYQQKPDGTVKLLIYYTSMLHSGVPSRFSGSGSGTDYSLTISNLEQEDIATYFCQQGSTLMYTFGGGTKLEIK
B22: TM-79 (antibody, V domains shown)
VH: EVQLQQSGPELVKPGASVKMSCKASGYTFTNYVMHWLKQKPGQGLEWIAHITPHNDGTKYNEKFKGKATLTSDRSSSTAYMELNSLTSEDSAIYYCARSGQFGRGDYFHYWGQGTTVTVSS
VL: DIVLTQSPASLAVSLGQRATISCRASKSVSTSGSIYIHWYQQKPGQPPKLLIYLTSNLESGVPARFSGSGSGTDFTLNIHPVEEEDAATYYCQHSGELPWTFGGGARLEIK

The binders below were run against human TMEM106B (human, UniProt Q9NUM4 2-274) (assay: cell-based or functional assay).
Note: test concentration or dose not given here.

Row | Binder | % Protection from CPE [%]
1 | B1 | 6.4
2 | B2 | 4.4
3 | B3 | 99.8
4 | B4 | 3.7
5 | B5 | 4.7
6 | B6 | 5.4
7 | B7 | 4.7
8 | B8 | 4.3
9 | B9 | 15.8
10 | B10 | 3.8
11 | B11 | 100
12 | B12 | 4.1
13 | B13 | 97.2
14 | B14 | 96.4
15 | B15 | 3.7
16 | B16 | 4.2
17 | B17 | 4.3
18 | B18 | 3.7
19 | B19 | 3.7
20 | B20 | 3.5
21 | B21 | 3.9
22 | B22 | 4.5
